The values that follow come from article PMC5838249, “The Apicomplexa-specific glucosamine-6-phosphate N-acetyltransferase gene family encodes a key enzyme for glycoconjugate synthesis with potential as therapeutic target” (Scientific Reports, 2018).

For orientation: Km means the concentration of substrate that gives half-maximal velocity.

Substrate in the data set: CC(=O)SCCNC(=O)CCNC(=O)[C@H](O)C(C)(C)COP(=O)(O)OP(=O)(O)OC[C@H]1O[C@@H](n2cnc3c(N)ncnc32)[C@H](O)[C@@H]1OP(=O)(O)O
In words: GNA1 kinetic assay, Michaelis-Menten. It counts as biochemical, Cryptosporidium parvum. As to conditions: co-substrate GlcN-6P.

B1: CpGNA1 (Cryptosporidium parvum Iowa II) (protein)
chain: MISSFEVRKATIDDYFELRNLICDVTRCTETLSREQAEERFRYNTYHPYCLVDTENGRIVGYAGFYIIPHLGRKNDSRIEHVIISKEYRNRGLGRLLCKQIIEDAKNKFNCGRIDLTVESHIAKKLYSSLEFEKVNTEVMRNSFLDLTPKSD
Regarding B1, the Km came out at 241.7 ± 35.3 µM.
